Consider one substance from patent US20100173430A1.

Assay [1] addresses human IgG (Sigma) (human). In words: SPR (BIAcore); protein G layer on gold thin film, human IgG 100 ug/ml injected.
Assay [2] concerns the target anti-human Kallikrein 3/PSA antibody (R&D systems). In words: SPR (BIAcore); protein G layer on gold thin film, anti-PSA antibody 0.5 ug/ml injected.

On to “untagged Streptococcal protein G variant recombinant protein (B1 and B2 domains, not tagged with cysteine) (from UniProt P19909 313-497)”, for which the figures for the change in surface plasmon resonance signal in assay [1] and in assay [2] were 1000 RU and 114 RU, respectively.
